Experimental findings from patent US20170321240 are described below.

The test system of series [1] is Left TALEN Slc35c1 (synthetic construct (Xanthomonas AvrBs3 scaffold)). As to the kind of experiment: cell_activity. To be noted: TALEN pair with right TALEN, 19-bp spacer; T7E1 assay 72 h, CHO cells.
Series [2] deals with Right TALEN Slc35c1 (synthetic construct (Xanthomonas AvrBs3 scaffold)). Description: cell_activity. The conditions noted are these: TALEN pair with left TALEN, 19-bp spacer; T7E1 assay 72 h, CHO cells.

With Slc35c1 exon 1 left TALEN half-site, in series [1], the activity (% gene modification) came to 7.3.
In turn, Slc35c1 exon 1 right TALEN half-site had an activity (% gene modification) in series [2] of 7.3.
